According to patent US8324357, “Universal fieldable assay with unassisted visual detection” (University of Southern California):

Tests used:
[1] = target: Russell's viper venom factor X activator (RVV-X) (UniProt Q7LZ61;Q4PRD1;Q4PRD2 Q7LZ61:189-619,Q4PRD1:24-146,Q4PRD2:25-158); test: EMSA; conditions: tags: Haematologic Technologies
VEGF165 = VEGF165 (Homo sapiens, UniProt P15692-4 P15692-4:27-191); test: EMSA; IC buffer, 3 mM CaCl2; conditions: tags: R&D Systems or USB; chain copies: 2 (inferred)
Chain of VEGF165 (P15692 other isoform, or with tags, fused parts or gaps): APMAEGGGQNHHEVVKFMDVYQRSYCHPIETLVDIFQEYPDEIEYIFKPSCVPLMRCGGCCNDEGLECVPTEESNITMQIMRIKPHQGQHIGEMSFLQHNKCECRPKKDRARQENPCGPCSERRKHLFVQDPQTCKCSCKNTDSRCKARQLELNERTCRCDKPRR

Chain of Russell's viper venom factor X activator (RVV-X) (Q7LZ61 189-619, chain 1 of 3): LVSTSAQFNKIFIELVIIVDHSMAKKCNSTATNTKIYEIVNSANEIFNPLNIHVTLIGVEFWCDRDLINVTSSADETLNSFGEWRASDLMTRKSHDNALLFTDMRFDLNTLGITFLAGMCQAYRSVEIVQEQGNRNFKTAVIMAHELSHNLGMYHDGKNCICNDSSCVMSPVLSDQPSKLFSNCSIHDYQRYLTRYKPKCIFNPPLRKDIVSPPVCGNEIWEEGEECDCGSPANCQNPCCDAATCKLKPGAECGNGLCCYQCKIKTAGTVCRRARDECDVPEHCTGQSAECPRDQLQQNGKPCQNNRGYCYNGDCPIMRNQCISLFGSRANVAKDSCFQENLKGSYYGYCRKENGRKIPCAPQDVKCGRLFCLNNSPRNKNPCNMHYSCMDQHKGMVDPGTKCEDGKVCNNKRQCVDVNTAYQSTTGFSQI
Chain of Russell's viper venom factor X activator (RVV-X) (Q4PRD1 24-146, chain 2 of 3): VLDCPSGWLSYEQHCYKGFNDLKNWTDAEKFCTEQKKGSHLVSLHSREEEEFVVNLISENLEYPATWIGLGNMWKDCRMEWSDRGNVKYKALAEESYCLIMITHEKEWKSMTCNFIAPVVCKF
Chain of Russell's viper venom factor X activator (RVV-X) (Q4PRD2 25-158, chain 3 of 3): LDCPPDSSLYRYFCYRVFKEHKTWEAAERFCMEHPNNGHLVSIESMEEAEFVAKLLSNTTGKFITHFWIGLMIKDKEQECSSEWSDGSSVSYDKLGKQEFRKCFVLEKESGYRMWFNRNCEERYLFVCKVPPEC

B1: RNA132 (ssRNA)
RNA: GGGAGGGAAUCAGUGAAUGCUUAUACAUCCCUCCUUGAGCAGUCGAUUAGUUUCGACAGGAGGCUCAC
Kd [1]: 5.7 nM | Kd (VEGF165): 5.7 nM
